# T1: G antigen 2A (human, UniProt Q6NT46 1-116)
# T1 construct: on protein array; also called GAGE2A
# T1 sequence: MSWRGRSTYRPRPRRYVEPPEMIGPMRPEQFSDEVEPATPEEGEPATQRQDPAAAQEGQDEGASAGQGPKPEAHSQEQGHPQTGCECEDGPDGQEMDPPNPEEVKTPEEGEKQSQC
# T2: zinc finger DHHC-type containing 1, transcript variant 1 (human, UniProt Q8WTX9 1-485)
# T2 construct: HuProt array protein, full-length recombinant from yeast; also called ZDHHC1
# T2 sequence: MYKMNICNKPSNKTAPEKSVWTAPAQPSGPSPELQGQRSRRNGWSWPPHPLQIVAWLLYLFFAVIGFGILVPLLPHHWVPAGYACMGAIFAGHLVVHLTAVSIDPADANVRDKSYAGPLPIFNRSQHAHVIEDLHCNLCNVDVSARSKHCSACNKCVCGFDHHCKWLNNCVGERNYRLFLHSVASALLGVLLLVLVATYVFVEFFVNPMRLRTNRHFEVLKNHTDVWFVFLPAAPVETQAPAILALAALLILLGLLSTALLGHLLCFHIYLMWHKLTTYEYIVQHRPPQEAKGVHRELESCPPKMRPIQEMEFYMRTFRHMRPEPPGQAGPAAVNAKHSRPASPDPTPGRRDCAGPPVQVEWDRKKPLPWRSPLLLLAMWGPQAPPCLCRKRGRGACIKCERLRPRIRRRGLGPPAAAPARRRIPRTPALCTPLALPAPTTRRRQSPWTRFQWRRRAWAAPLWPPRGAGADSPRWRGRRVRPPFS
# T3: glyoxylate and hydroxypyruvate reductase (human, UniProt Q9UBQ7 1-328)
# T3 construct: on protein array; also called GRHPR
# T3 sequence: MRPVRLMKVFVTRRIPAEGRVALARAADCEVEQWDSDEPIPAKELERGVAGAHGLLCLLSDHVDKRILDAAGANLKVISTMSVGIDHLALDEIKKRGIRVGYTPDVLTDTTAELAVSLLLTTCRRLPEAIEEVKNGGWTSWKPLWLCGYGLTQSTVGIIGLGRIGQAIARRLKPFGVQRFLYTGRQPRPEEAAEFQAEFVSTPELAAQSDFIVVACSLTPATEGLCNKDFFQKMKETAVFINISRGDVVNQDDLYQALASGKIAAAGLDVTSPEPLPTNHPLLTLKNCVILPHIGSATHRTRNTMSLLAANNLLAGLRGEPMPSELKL
# T4: acyl-CoA binding domain containing 6 (human, UniProt Q9BR61 1-282)
# T4 construct: on protein array; also called ACBD6
# T4 sequence: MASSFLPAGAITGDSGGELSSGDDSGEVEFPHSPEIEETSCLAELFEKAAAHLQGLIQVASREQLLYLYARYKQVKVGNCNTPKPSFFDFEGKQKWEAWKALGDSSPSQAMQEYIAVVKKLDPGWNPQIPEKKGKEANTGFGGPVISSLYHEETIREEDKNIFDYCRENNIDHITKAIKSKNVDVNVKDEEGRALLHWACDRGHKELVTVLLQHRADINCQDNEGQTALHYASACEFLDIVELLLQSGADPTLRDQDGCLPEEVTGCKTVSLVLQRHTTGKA
# T5: UTP6 small subunit processome component (human, UniProt Q9NYH9 1-597)
# T5 construct: on protein array
# T5 sequence: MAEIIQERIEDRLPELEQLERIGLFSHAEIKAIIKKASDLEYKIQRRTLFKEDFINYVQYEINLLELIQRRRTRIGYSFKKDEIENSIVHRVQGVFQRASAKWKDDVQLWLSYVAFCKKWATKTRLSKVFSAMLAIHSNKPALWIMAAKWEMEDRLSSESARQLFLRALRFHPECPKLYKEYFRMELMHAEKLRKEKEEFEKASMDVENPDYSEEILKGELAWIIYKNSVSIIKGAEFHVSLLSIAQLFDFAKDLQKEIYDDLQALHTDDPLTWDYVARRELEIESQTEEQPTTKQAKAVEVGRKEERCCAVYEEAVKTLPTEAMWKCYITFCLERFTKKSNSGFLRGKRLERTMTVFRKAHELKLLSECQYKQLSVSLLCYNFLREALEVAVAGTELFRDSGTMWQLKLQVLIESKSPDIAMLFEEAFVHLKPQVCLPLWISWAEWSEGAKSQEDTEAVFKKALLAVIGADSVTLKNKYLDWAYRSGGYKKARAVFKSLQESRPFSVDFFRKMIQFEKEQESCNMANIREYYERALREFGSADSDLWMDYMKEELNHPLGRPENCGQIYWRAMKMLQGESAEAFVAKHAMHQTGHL
# T6: influenza virus NS1A binding protein (human, UniProt Q9Y6Y0 1-642)
# T6 construct: on protein array; also called IVNS1ABP
# T6 sequence: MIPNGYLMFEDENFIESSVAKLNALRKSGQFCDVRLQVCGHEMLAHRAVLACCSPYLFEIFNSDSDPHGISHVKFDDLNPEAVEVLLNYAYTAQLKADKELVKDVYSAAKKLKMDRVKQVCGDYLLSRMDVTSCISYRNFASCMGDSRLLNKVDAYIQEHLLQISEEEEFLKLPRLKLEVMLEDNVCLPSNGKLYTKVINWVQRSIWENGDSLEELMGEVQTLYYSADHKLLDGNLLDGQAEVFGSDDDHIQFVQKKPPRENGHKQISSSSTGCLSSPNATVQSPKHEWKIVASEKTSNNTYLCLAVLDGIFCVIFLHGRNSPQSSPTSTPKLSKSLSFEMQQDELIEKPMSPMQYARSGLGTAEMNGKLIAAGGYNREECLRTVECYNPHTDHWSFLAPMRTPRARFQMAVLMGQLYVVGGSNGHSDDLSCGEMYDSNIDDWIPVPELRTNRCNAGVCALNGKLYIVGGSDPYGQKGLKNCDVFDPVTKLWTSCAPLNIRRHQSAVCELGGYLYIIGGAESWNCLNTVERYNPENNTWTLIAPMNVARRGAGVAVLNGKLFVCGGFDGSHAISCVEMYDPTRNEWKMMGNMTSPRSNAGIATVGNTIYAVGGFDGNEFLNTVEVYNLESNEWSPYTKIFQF
# T7: phosducin like (human, UniProt Q13371 2-301)
# T7 construct: on protein array; also called PDCL
# T7 sequence: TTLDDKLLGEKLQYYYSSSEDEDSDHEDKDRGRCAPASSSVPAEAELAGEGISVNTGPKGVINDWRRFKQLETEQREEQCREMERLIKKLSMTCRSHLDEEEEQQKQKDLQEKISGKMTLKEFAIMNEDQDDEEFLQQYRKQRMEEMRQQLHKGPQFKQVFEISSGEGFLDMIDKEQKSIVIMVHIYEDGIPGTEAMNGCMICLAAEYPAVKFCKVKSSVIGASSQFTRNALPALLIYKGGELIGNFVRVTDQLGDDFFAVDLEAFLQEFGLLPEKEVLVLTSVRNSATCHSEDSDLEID
# T8: Dexd-box helicase 52 (human, UniProt Q9Y2R4 1-599)
# T8 construct: on protein array; also called DDX52
# T8 sequence: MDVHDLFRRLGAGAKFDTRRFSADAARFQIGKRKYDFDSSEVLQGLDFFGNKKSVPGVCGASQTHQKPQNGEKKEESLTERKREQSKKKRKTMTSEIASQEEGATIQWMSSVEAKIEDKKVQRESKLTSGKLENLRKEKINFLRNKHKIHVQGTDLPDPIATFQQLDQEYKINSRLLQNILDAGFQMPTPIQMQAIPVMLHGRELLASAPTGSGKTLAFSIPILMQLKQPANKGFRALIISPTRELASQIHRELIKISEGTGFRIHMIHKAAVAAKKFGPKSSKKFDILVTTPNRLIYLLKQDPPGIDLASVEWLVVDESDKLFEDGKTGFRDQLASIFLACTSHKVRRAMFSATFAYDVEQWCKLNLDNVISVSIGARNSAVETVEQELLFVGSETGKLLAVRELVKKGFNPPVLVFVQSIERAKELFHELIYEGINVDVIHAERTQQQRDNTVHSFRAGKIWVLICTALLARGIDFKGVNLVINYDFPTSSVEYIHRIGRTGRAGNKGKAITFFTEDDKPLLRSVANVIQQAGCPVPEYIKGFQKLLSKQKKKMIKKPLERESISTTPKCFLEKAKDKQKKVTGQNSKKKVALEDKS
# B1: TTES1012 (antibody, V domains shown)
# VH: EVQLVESGGGLVQPGGSLRLSCAASGFTFSSYWMTWVRQAPGKGLEWVANIKQDGSEKYYVDSVKGRFTISRDNSKNSLYLQMNSLRAEDTAVYYCARAGYDLFGWFDPWGQGTLVTVSS
# VL: SYELTQPPSVSVSPGQTARITCSGDALPKQYAYWYQQKPGQAPVLVIYKDSERPSGIPERFSGSSSGTTVTLTISGVQAEDEADYYCQSADSSGTYVFGTGTKVTVLG
# notes: VH/VL tied via antigen in summary, not by name in this stretch
# B2: TBLA1003 (antibody, V domains shown)
# VH: EVQLVESGGGLIQPGRSLRLSCAASGFTFEDYAMHWVRQAPGKGLEWVSGISWNSGNIGYADSVKGRFTISRDNAKNSLYLQMHSLRPEDTALYYCAKDINFFGLGTGGGAMDVWGQGTTVTVSS
# VL: DIQMTQSPSYVSASVGDRVTITCRASQGIDVWLAWYQQKPGKAPKLLIYTASSLQSGVPSRFSGSGGGTEFTLTISSLQPEDFATYYCQQSNSFPGTFGPGTKVDVKR
# notes: detected with anti-human IgG Fc
# B3: TTES1004 (antibody, V domains shown)
# VH: EVQLVESGGGLVQPGGSLRLSCVASGFTFSSYSMNWVRQAPGKGLKWVSYISSSRSTIYNADSVKGRFTISRDNAKKSLYLQMNSLRAEDTAVYYCARVSVAAPTCLDYWGQGTLVTVSS
# VL: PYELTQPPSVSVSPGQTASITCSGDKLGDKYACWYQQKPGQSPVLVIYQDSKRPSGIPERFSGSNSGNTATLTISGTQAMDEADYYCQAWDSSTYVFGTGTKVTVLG
# notes: as for B1
# B4: TTES1006 (antibody, V domains shown)
# VH: EVQLVESGGGLVQPGGSLRLSCAASGFTFSKFWMHWVRQAPGKGLVWLSRINTDGTVTTYADSVKGRFTISRDNAKSTLYLQMNSLRVEDTAVYYCAGGGSQVDFWGQGTLVTVSS
# VL: PYELTQPPSVSVSPGQTASIACSGDNLGNKYAWWYRQKPGQSPVLVMYKDNKRPSGIPERFSGSNSGNTATLTISGTQAMDEADYYCQTWDSSTVIFGGGTKLTVQ
# notes: as for B1
# B5: TUCE1005 (antibody, V domains shown)
# VH: QVQLQESGPGLVKPSETLSLTCTVSGGSISSYYWSWIRQPAGKGLEWIGRIYTSGSTNYNPSLKSRVTMSVDTSKNQFSLKMSSVTAADTAVYYCARGELLFDHWGQGTLVTVSS
# VL: not shown
# notes: as for B1
# B6: TTHY1003 (antibody, V domains shown)
# VH: QVQLVQSGAEMKKPGTSVKVSCRTSGYIFTGSFMHWVRQAPAQGLEWMGWINPKTGATYYTEKFKGRVTLTRDTSINTAYMEMTSLRSDDTAVYYCARGFCDLPACYPVPQYNWFDPWGQGTLVTVSS
# VL: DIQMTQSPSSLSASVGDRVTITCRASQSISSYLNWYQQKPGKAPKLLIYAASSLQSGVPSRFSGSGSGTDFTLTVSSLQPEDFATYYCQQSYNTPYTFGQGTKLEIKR
# notes: as for B1
# B7: TTES1007 (antibody, V domains shown)
# VH: QITLKESGPTLVKPTQTLTLTCTFSGFSLTTTGVGVGWIRQPPGKALEWLALIYWDDDKRYSPSLKSRLIITKDTSKNQVVLTMTNMDPVDTATYYCAHRFGRGVSYYYYGMDVWGQGTTVTVSS
# VL: not shown
# notes: as for B1
# B8: TTES1008 (antibody, V domains shown)
# VH: QVQLVESGGGVVQPGRSLRLSCAASGFIFSSYGMHWVRQAPGKGLEWVAVISYDGSNKYYADSVKGRFTISRDKSKNTLHLQMNSLRAEDTAVYYCAKDSGSNDDMDVWGKGTTVTVSS
# VL: QSVLTQPPSVSAAPGQKVTISCSGSSSNIGNNYVSWYQQLPGTAPKLLIYDNNKRPSGIPDRFSGSKSGTSATLGITGLQTGDEADYYCGTWDSSLSAGVFGTGTKVTVLG
# notes: as for B1
# B9: TTHY1002 (antibody, V domains shown)
# VH: EVQVVESGGGLGQPGGSLRLSCAASGFTFSSYSMNWVRQAPGKGLEWVSYISSSSSTKYYADSVKGRFTISRDNAKKSLYLQMNSLRDEDTAVYYCASPVRPWGQGTLVTVSS
# VL: EIVMTQSPATLSVSPGERATLSCRASQSVSSNLAWYQQKPGQAPRLLIYGASTRATGIPARFSGSGSGTEFTLTISSLQSEDFAIYYCQQYNSWPAFGGGTKVEIK
# notes: as for B1
# Key:
# G antigen 2A = molecular target: T1, G antigen 2A; experiment: protein array
# [1] = molecular target: T2, zinc finger DHHC-type containing 1, …
# [2] = molecular target: T3, glyoxylate and hydroxypyruvate reductase; experiment: protein array
# [3] = molecular target: T4, acyl-CoA binding domain containing 6; experiment: protein array
# [4] = molecular target: T5, UTP6 small subunit processome component; experiment: protein array
# [5] = molecular target: T6, influenza virus NS1A binding protein; experiment: protein array
# [6] = molecular target: T9, BAF chromatin remodeling complex subunit BCL7C, transcript variant 2 (human, UniProt Q8WUZ0 1-217); experiment: protein array
# T9 construct: on protein array
# phosducin like = molecular target: T7, phosducin like; experiment: protein array
# Dexd-box helicase 52 = molecular target: T8, Dexd-box helicase 52; experiment: protein array
# [7] = molecular target: T10, G protein-coupled receptor 4 (human, UniProt P46093 1-362); experiment: protein array
# T10 construct: on protein array; also called GPR4
# [8] = molecular target: T11, proliferating cell nuclear antigen, transcript variant 1 (human, UniProt P12004 1-261); experiment: protein array
# T11 construct: on protein array; also called PCNA
# T11 sequence (P12004 whole entry, change not shown): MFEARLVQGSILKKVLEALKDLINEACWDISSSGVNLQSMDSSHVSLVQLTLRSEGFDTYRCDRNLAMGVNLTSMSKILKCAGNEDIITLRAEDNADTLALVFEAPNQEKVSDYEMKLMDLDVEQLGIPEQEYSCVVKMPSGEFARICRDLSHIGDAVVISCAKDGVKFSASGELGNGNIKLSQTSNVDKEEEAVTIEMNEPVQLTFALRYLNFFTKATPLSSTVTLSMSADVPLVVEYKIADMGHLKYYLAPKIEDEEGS
# T10 sequence (P46093 whole entry): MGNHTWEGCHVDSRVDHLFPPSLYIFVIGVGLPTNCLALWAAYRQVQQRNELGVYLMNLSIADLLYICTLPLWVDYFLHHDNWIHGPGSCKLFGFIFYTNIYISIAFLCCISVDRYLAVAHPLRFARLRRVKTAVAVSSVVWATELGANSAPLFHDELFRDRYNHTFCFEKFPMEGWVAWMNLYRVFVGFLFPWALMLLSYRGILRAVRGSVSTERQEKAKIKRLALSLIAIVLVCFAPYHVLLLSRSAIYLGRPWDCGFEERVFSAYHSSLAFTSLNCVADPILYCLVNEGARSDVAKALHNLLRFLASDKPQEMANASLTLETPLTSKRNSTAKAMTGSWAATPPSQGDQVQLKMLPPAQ
binder,measurement,setting,value
B1,binding result,G antigen 2A,binds
B2,binding result,[1],binds
B3,binding result,[2],binds
B4,binding result,[3],binds
B5,binding result,[4],binds
B6,binding result,[5],binds
same,binding result,[6],binds
B7,binding result,phosducin like,binds
B8,binding result,Dexd-box helicase 52,binds
same,binding result,[7],binds
B9,binding result,[8],binds
